Data as given in doi:10.1101/2025.08.05.667158, “Antagonistic insulin mimetics lock the insulin receptor in an alternative apo-state” (bioRxiv, 2025).
Positions of bridges follow the written chain, without caps; N, C: chain ends. Chains are numbered I, II in the order given. No end group written: not given here. adamantane scaffold = adamantane core scaffold to which the peptide C-termini are attached

B1: Ada insulin mimetic (designed binder)
peptide 1: Ac-FYDWFERQ
peptide 2: SLEEEWAQ
modifications: linker I:C-II:C via adamantane scaffold; not fully specified (C-terminus); also: mixture of two diastereoisomers
notes: minimal Site-1 peptide, derived from the phage display peptides S597 and S661; minimal Site-2 peptide, derived from the phage display peptides S597 and S661; Two peptides joined through their C-termini by an adamantane scaffold; Ada is an inseparable mixture of two diastereoisomers; only one fits the cryo-EM density; also called antagonist; source: synthetic (solid-phase peptide synthesis)
B2: Trim insulin mimetic (designed binder)
peptide 1: Ac-FYDWFERQ
peptide 2: SLEEEWAQ
modifications: linker I:C-II:C via trimesic acid scaffold; not fully specified (C-terminus); also: linker at chain A 8 at chain B 8 to a chain's C-terminus via trimesic acid scaffold
notes: minimal Site-1 peptide, derived from the phage display peptides S597 and S661; minimal Site-2 peptide, derived from the phage display peptides S597 and S661; Two peptides joined through their C-termini by a trimesic acid scaffold; also called antagonist; source: synthetic (solid-phase peptide synthesis)

Biological target: T1, IR-A in cell membranes of human IM-9 lymphocytes (human (endogenous in IM-9), UniProt P06213-2 28-1370)
T1 construct: human insulin receptor, isoform A (IR-A); Heterotetramer (alpha alpha' beta beta') of two protomers, each cut into an alpha and a beta subunit; written as one chain for the protomer; In the functional rows this molecule stands for human IR-A stably transfected in mouse embryonic fibroblasts; also called insulin receptor; source: endogenous, cell membranes of human IM-9 lymphocytes (ATCC)
Test: radioligand binding; competition with [125I]-monoiodotyrosyl-TyrA14-insulin for IR-A in cell membranes of human IM-9 lymphocytes; each curve in duplicate, Kd from at least three curves; non-linear regression for one site binding with ligand depletion
Conditions: one partner purified

T1 sequence (P06213 other isoform, or with tags, fused parts or gaps): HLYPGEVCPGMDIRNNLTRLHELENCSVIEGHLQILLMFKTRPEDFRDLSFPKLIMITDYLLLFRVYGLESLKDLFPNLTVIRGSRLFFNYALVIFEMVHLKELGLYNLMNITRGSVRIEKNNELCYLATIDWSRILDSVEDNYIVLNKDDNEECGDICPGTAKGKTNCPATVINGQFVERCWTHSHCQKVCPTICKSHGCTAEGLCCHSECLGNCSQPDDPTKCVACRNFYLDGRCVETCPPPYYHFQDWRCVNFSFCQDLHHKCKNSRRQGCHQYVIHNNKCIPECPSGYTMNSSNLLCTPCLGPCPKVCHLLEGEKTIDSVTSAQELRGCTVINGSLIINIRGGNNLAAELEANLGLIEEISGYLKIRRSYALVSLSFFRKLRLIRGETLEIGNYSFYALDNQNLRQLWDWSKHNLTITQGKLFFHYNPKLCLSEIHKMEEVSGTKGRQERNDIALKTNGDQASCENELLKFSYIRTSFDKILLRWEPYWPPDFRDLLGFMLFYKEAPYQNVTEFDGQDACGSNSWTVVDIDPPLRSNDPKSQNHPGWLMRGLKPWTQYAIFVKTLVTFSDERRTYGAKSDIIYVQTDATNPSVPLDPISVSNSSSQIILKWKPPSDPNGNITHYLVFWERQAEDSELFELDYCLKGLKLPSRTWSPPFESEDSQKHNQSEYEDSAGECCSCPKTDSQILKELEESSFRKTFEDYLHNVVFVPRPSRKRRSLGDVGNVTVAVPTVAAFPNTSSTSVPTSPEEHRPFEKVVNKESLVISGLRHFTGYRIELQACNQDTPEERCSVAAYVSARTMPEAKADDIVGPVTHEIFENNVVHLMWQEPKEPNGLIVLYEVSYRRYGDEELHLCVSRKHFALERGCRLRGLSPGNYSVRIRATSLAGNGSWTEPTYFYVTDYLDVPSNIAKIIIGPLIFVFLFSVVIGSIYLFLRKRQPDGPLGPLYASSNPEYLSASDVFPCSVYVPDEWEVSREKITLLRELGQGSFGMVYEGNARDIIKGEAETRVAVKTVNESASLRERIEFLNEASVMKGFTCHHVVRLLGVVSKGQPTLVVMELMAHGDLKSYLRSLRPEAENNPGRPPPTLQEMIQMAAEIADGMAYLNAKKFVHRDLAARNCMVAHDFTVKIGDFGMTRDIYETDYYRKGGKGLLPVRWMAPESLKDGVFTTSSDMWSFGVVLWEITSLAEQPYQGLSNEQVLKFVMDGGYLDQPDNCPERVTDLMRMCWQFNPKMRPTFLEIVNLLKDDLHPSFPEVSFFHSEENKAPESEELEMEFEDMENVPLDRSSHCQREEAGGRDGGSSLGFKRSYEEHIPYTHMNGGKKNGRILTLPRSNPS

Binder | Kd [µM]
B1 | 0.395
B2 | 1.26
